Consider six molecules from US20080279856A1, “Inhibition of Bradykinin Release” (Novo Nordisk Pharmaceuticals, Inc., priority 1999, published 2008).

The term IC50 denotes the concentration needed to halve the response being measured.

Entries after “also recorded” stand apart in the source; their conditions may differ.

For one assay, the system named is endothelial cells. Briefly: EC response to CD18 cross-linking in PMNs (Ca2+ and TEER). The format is cell-based, human, bovine. Particulars: EC pre-treated. The method, then: Human umbilical vein endothelial cells (HUVEC) and bovine aorta endothelial cells (BAEC) are isolated and cultured as previously described (Gautam et al. 1998, Brit. J. Pharm. 125:1109-1114). HUVEC or BAEC in the first to fifth passages are detached by brief (2 min) trypsin-EDTA treatment (0.25% trypsin/0.01% EDTA) and replated onto either 0.2 μm pore size Anopore inorganic membrane or 3.0 μm pore size polycarbonate filters (Tissue Culture inserts, 10 mm; NUNC, Roskilde, Denmark). In order to promote cellular differentiation and enhance attachment of endothelial cells (ECs), the filters are pretreated with 50 μl Biomatrix 1 (167 μg/ml) and air-dried. […] The EC are grown to confluent monolayers, as assessed by daily microscopic observation and measurement of the electrical resistance across the monolayer (Gautam et al 1998, Brit. J. Pharm. 125:1109-1114).
Two different approaches are used for assessment of stimulation-induced changes in EC permeability. […] Electrical resistance across the EC monolayer is measured at 37° C. with electrodes in each compartment exactly positioned in relation to each other and to the monolayer. The electrical resistance of individual EC monolayers is obtained by subtracting the resistance of the corresponding naked filter coated with Biomatrix as measured prior to seeding of the endothelial cells. […]

Assay [1] deals with HBP-induced increase in EC permeability. The experiment in a line: Inhibition of HBP-induced increase in EC permeability. The format is cell-based, human, bovine. To be noted: peptide 3 μg/ml for 30 min, wash; HBP 75 μg/ml; N=6. The source says:
Alternatively, HBP antagonists may be detected by culturing endothelial cells in the presence of HBP and in the presence and absence of a substance suspected of being an antagonist. In a specific embodiment, the antagonist is a monoclonal antibody that binds to at least one epitope of HBP, preferably human HBP, wherein said epitope binds to prekallikrein-H-kininogen complex and activates release of bradykinin. In a preferred embodiment, the monoclonal antibody is a human monoclonal antibody. In one embodiment, the antibody and HBP are preincubated together before incubating with endothelial cells for about 10 minutes at 37° C. The effect of the substance on the permeability of endothelial cells is determined by measuring transendothelial electrical resistance or determining albumin clearance as described in the Examples, infra. A decrease in permeability would indicate that the substance does act as an HBP antagonist.
For measurement of electrical resistance across the EC monolayer, the filter insert is transferred to a resistance measurement chamber (ENDOHM-12; World Precision Instruments, Sarasota, Fla., USA) modified so as to assure exact positioning of the electrodes in relation to each other and to the filter insert during repeated measurements. The chamber (lower compartment) and the filter insert (upper compartment) are filled with 2 ml and 400 μl culture medium, respectively. […] Direct readings of the electrical resistance are given by an ohmmeter (EVOM; World Precision Instruments, Sarasota, Fla., USA) connected to the electrodes of the resistance chamber. The electrical resistance of individual EC monolayers is obtained by subtracting the resistance of the corresponding naked filter coated with Biomatrix as measured prior to seeding of the endothelial cells.
Evans blue dye-conjugated albumin (EBA) is used as a marker for macromolecular permeability of the EC monolayers. […] In experiments where albumin permeability is analyzed, the culture medium in the upper compartment is exchanged for medium containing EBA. […]

In assay [2] the test system is bradykinin-induced increase in EC permeability. The experiment in a line: Inhibition of bradykinin-induced increase in EC permeability. To be noted: peptide 3 μg/ml for 30 min; bradykinin 100 nM at 15 min after HBP. The format is cell-based, human, bovine. The method, then: For measurement of electrical resistance across the EC monolayer, the filter insert is transferred to a resistance measurement chamber (ENDOHM-12; World Precision Instruments, Sarasota, Fla., USA) modified so as to assure exact positioning of the electrodes in relation to each other and to the filter insert during repeated measurements. The chamber (lower compartment) and the filter insert (upper compartment) are filled with 2 ml and 400 μl culture medium, respectively. All measurements are made at 37° C. with the equipment placed in a cell culture incubator. Direct readings of the electrical resistance are given by an ohmmeter (EVOM; World Precision Instruments, Sarasota, Fla., USA) connected to the electrodes of the resistance chamber. The electrical resistance of individual EC monolayers is obtained by subtracting the resistance of the corresponding naked filter coated with Biomatrix as measured prior to seeding of the endothelial cells.
Before transferring the filter inserts to the resistance measurement chamber (kept at 37° C.), the medium in the insert and in the chamber is replaced with fresh culture medium (37° C.) supplemented with 10 mM Hepes. HBP (25-100 μg/ml) or PMN secretion product is added either to the upper or the lower compartment and change in transendothelial electrical resistance is measured every minute until a plateau phase is reached, and thereafter at 5-min intervals. In separate experiments, PMNs (2×10^6) preincubated with mAb IB4 (10 μg/ml) are added to the upper compartment (PMN:EC ratio=10:1) and allowed to sediment for 10 min. Activation of the PMNs is induced through antibody crosslinking of leukocytic CD18 by addition of goat anti-mouse IgG F(ab′)2 diluted 1:20. In experiments where albumin permeability across the EC monolayer is studied, the medium in the insert contained EBA. During the experiment, the filter insert is moved at 5-10 min intervals to new wells containing fresh medium. All incubations are made at 37° C. After the experiment, the medium in the lower wells is aspirated and analyzed for EBA content.

Assay [3] can be described thus: 3H-LPS binding to HBP, scintillation proximity assay. The method, then:
The affinity for lipopolysaccharide (3H-LPS) is measured by scintillation proximity assay technology (SPA) as described (Linde, V., Bjørn, S., Kastrup, J. S., and Flodgaard, H., 2000, Biotechniques 28:218-222). All samples are repeated in triplicates.
A general note: In a scintillation proximity assay essentially only radioactivity close to the scintillant gives light.

Another assay concerns 125I-BPTI. Briefly: 125I-BPTI binding to HBP, scintillation proximity assay. Further details: species or system bovine. Here is the method: (§1) The relative affinities of HBP and the mutants are determined by performing competition studies with […] of unlabeled BPTI.
For another assay, the system named is human monocytes. The experiment in a line: LPS induced IL-6 release from monocytes. The format is cell-based. Particulars: 24 hours, serum-free medium. The source says:
Human monocytes are isolated and treated as described (Rasmussen, P. B., Bjørn, S., Hastrup, S., Nielsen, P. F., Norris, K., Thim, L., Wiberg, F. C., and Flodgaard, H. (1996) FEBS Lett. 390: 109-112), with the exception that 1% non-essential amino acids is excluded from the medium.

Assay [4] in a line: 125I-BPTI binding to HBP, scintillation proximity assay. Further details: species or system bovine. Particulars: competition with unlabeled BPTI; read-out: apparent IC50 of 125I-BPTI binding. Here is the method: as §1
A further assay has as its target aprotinin (Bos taurus, UniProt P00974). The experiment in a line: Ability of HBP variants to bind aprotinin. Type of assay: binding.

On to `CC(=O)OCOC(=O)CN(CC(=O)OCOC(C)=O)c1ccccc1OCCOc1ccccc1N(CC(=O)OCOC(C)=O)CC(=O)OCOC(C)=O` [BAPTA AM], for which, in the assay on endothelial cells, the “effect on change in TEER” value is reported as “completely inhibited” and the “effect on rise in EC free intracellular Ca2+” value is “completely inhibited”.
In the case of “HKHGHGHHKKNKGKKNGKH (listed as Homo sapiens) [HKH20]”, in assay [1], the “effect on HBP-induced increase in EC permeability” value was “prevented”. In addition, in assay [2], the “effect on bradykinin-induced permeability change” value is “but not the permeability change induced by subsequent administration of bradykinin”.
“SDDDWIPDIQTDPNGLSFNPISDFPDTTSPK (listed as Homo sapiens) [SDD31]”: the “effect on HBP-induced increase in EC permeability” value in assay [1] is “largely prevented”. In addition, the “effect on bradykinin-induced permeability change” value in assay [2] is listed as “persisted”.

B1: [G175Q]HBP: Mutant of human HBP with G175Q in the BPTI binding site (protein)
chain: IVGGRKARPRQFPFLASIQNQGRHFCGGALIHARFVMTAASCFQSQNPGVSTVVLGAYDLRRRERQSRQTFSISSMSENGYDPQQNLNDLMLLQLDREANLTSSVTILPLPLQNATVEAGTRCQVAGWGSQRSGGRLSRFPRFVNVTVTPEDQCRPNNVCTGVLTRRGGICNGDQGTPLVCEGLAHGVASFSLGPCGRGPDFFTRVALFRDWIDGVLNNPGP
Regarding B1, in assay [3], the “lipid A/LPS binding property” value is reported as “comparable to that of native HBP”. In addition, the “binding of BPTI” value in the assay with 125I-BPTI was “eliminated; also recorded: no binding”. The “stimulation of LPS induced cytokine-release (IL-6)” value in the assay on human monocytes was “only a very limited stimulation”.

B2: [R23S,F25E]HBP: Mutant of human HBP with R23S and F25E in the putative lipid A/LPS binding site (protein)
chain: IVGGRKARPRQFPFLASIQNQGSHECGGALIHARFVMTAASCFQSQNPGVSTVVLGAYDLRRRERQSRQTFSISSMSENGYDPQQNLNDLMLLQLDREANLTSSVTILPLPLQNATVEAGTRCQVAGWGSQRSGGRLSRFPRFVNVTVTPEDQCRPNNVCTGVLTRRGGICNGDGGTPLVCEGLAHGVASFSLGPCGRGPDFFTRVALFRDWIDGVLNNPGP
In the case of B2, the “lipid A/LPS binding property” value in assay [3] is recorded as “do not affect”. The IC50 in assay [4] was roughly 7 nM. Further, in the assay on 125I-BPTI, the “binding capacity for 125I-BPTI” value is reported as “larger binding capacity as compared to HBP” and the “binding of BPTI” value is reported as “do not affect; also recorded: binds BPTI”. Besides, the “stimulation of LPS induced cytokine-release (IL-6)” value in the assay on human monocytes is listed as “do not affect”.

B3: porcine HBP: Porcine heparin-binding protein, very homologous to human HBP, unable to bind aprotinin (protein)
chain: IVGGRRAQPQEFPFLASIQKQGRPFCAGALVHPRFVLTAASCFRGKNSGSASVVLGAYDLRQQEQSRQTFSIRSISQNGYDPRQNLNDVLLLQLDREARLTPSVALVPLPPQNATVEAGTNCQVAGWGTQRLRRLFSRFPRVLNVTVTSNPCLPRDMCIGVFSRRGRISQGDRGTPLVCNGLAQGVASFLRRRFRRSSGFFTRVALFRNWIDSVLNNPP
Take B3: the “ability to bind aprotinin” value with aprotinin is listed as “unable to bind aprotinin”.
